Results: patent US20150098945A1 (Daiichi Sankyo, published 2015)

T1: recombinant human ROBO4 extracellular region polypeptide rROBO4-ECD (human, UniProt Q8WZ75 28-461)
T1 construct: Expressed from pEF6/V5-His-TOPO in FreeStyle 293-F cells; also called human ROBO4-ECD
T1 sequence: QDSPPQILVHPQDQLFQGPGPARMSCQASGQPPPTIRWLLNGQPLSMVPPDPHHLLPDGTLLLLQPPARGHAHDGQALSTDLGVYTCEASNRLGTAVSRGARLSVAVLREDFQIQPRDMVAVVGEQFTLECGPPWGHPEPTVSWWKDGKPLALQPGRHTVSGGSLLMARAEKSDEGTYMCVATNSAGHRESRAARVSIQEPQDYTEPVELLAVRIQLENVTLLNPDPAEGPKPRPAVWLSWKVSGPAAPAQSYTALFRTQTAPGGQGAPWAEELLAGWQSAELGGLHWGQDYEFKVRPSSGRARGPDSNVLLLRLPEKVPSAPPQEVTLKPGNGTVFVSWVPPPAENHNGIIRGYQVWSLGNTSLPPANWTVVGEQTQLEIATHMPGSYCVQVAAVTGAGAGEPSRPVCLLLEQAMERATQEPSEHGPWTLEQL


Biological target: T1, recombinant human ROBO4 extracellular …
Test: SPR (Biacore 3000), antibody captured via anti-human IgG on CM5, rROBO4-ECD as analyte, 1:1 model
Procedure: The dissociation constant between each antibody and rROBO4-ECD was determined with the antibody immobilized as a ligand and the antigen as an analyte using Biacore 3000 (manufactured by GE Healthcare Bio-Sciences Corp.). Approximately 80 RU of the antibody was bound via an anti-human IgG antibody (manufactured by GE Healthcare Bio-Sciences Corp.) immobilized on a sensor chip CM5 (manufactured by GE Healthcare Bio-Sciences Corp.) by an amine coupling method. The running buffer used was PBS containing 0.05% Surfactant P20. Dilution series solutions (0.1-200 nM) of the antigen were added at a flow rate of 30 μL/min. for 300 seconds onto the antibody-bound chip. Subsequently, a dissociation phase was monitored for 300 seconds. 3 M MgCl₂ was added thereto as a regeneration solution at a flow rate of 10 μL/min. for 30 seconds. Data was analyzed using the 1:1 binding model of analysis software (BIAevaluation Software, version 4.1) to calculate an association rate constant kon, a dissociation rate constant koff, and a dissociation constant (KD; KD=koff/kon).

Binder | Kd
humanized MAb1 antibody H-1040 (antibody, human IgG2, kappa, V domains shown, Human IgG2 / kappa constant regions; also called hMAb1-H1-type heavy chain + hMAb1-L1-type light chain) VH: EVQLVESGGGLVQPGGSLRLSCAASGFTFSTYAMSWVRQAPGKGLEWVATISNGGTYTYYPDSVKGRFTISRDNAKNTLYLQMNSLRAEDTAVYYCARLIYYDYLDYWGQGTLVTVSS VL: DIVMTQSPLSLPVTLGEPASISCRSSQSLENSNGNTYLNWYLQKPGQSPQLLIYRVSNRFSGVPDRFSGSGSGTDFTLKISRVEAEDVGVYYCLQVTHVPWTFGPGTKVDIKR | 0.41 nM
humanized MAb1 antibody H-2040 (antibody, human IgG2, kappa, V domains shown, Human IgG2 / kappa constant regions; also called hMAb1-H3-type heavy chain + hMAb1-L1-type light chain) VH: EVQLVESGGGLVQPGGSLRLSCAASGFTFSTYAMSWVRQAPGKRLEWVATISNGGTYTYYPDSVKGRFTISRDNAKNTLYLQMNSLRAEDTAVYYCARLIYYDYLDYWGQGTLVTVSS VL: DIVMTQSPLSLPVTLGEPASISCRSSQSLENSNGNTYLNWYLQKPGQSPQLLIYRVSNRFSGVPDRFSGSGSGTDFTLKISRVEAEDVGVYYCLQVTHVPWTFGPGTKVDIKR | 0.4 nM
